According to US20200283482A1, “BICYCLIC PEPTIDE LIGAND PRR-A CONJUGATES AND USES THEREOF” (BicycleRD Limited, priority 2017, published 2020):
Like-named read-outs stand apart in the source and are kept apart here. Starred links: 1 amine or outer side, 2 acyl side, 3 side chain; linkers in the order of their positions; H or OH if unused. Positions of bridges follow the written chain, without caps; N, C: chain ends. Non-standard residues stand in square brackets, D forms with d. Residues, ends and D or L forms follow the SMILES beside them. *: point of attachment. X11 = CCCOc1nc(NC(=O)OCc2ccc(NC(=O)[C@H](CCCNC(N)=O)NC(=O)[C@@H](NC(=O)Cn3cc(CCC(=O)*)nn3)C(C)C)cc2)c2[nH]c(=O)n(Cc3ccc(OCCN(C)C)nc3)c2n1; X3 = CCOCc1nc2c(NC(=O)OCc3ccc(NC(=O)[C@H](CCCNC(N)=O)NC(=O)[C@@H](NC(=O)Cn4cc(CCC(=O)*)nn4)C(C)C)cc3)nc3ccccc3c2n1CC(C)(C)O; X2 = CCOCc1nc2c(NC(=O)OCCSCC(=O)*)nc3ccccc3c2n1CC(C)(C)O; 1Nal = N[C@@H](Cc1cccc2ccccc12)C(=O)O; TBMB = c1c(C[*:1])cc(C[*:3])cc1C[*:2]; Tle = CC(C)(C)[C@H](N)C(=O)O; βAla = NCCC(=O)O; Sar = CNCC(=O)O

Key:
Blood stability, mouse = assay type: in vitro ADME, CD-1 mouse; details: male, CD-1, mouse
Procedure: CD-1 mouse blood (n≥2, male, fasted overnight) is collected from animals housed at an internal facility. (EDTA-K2 is used as anticoagulant)
The test compounds and positive control stock solutions are prepared to 10 mM in DMSO or ultrapure water. Control compounds bisacodyl, enalapril and propantheline known to be metabolised by blood are also incubated alongside each batch of test compounds I-7, I-22, I-24, I-25, I-27, and I-29 to I-33. The dosing solutions of test compounds and controls are prepared by diluting the stock solution with 45% MeOH/H2O to achieve 100 uM. Test compound solutions (final incubation concentration=2 μM) are incubated with blood (final DMSO concentration≤1%) at six different time points (0, 1, 2, 4, 6 and 24 hours) in duplicate (n=2). The reaction is terminated by adding 100 uL ultra-pure water, mixing well, then adding 800 uL of 100% methanol containing 200 ng/mL tolbutamide and 200 ng/mL labetalol as internal standards. Samples are then vortexed and centrifuged at 3200×g for 20 minutes. Following centrifugation, the concentration of test compound in the supernatant is determined semi-quantitatively by LC-MS/MS. The percentage of test compound remaining at the individual time points relative to the 0 hour sample is then reported. The percent remaining of test compound after incubation in blood is calculated using following equation: Percent Remaining=100×(PAR at appointed incubation time/PAR at T0 time) where PAR is the peak area ratio of analyte versus internal standard (IS).

Plasma stability, dog = assay type: in vitro ADME; details: pH 7.4
Procedure: (§1) The pooled frozen mouse, rat, dog, monkey or human plasma is thawed in a water bath at 37° C. prior to experiment. Plasma is centrifuged at 4000 rpm for 5 min and the clots are removed if any. […] For positive controls, 100 μM intermediate solution is prepared by diluting 20 μL of the stock solution with 180 μL 45% MeOH/H2O. […] For compounds I-7 to […]-17, […]-22, and […]-33, at each time point (0, 1, 2, 4, 6 and 24 hr), reactions were stopped by removing the plates from water bath and 200 μL 20 mM NH4OAC mix well first and then adding 800 μL of ice-cold stop solution (200 ng/mL Labetalol, 200 ng/mL Tolbutamide, 500 ng/mL N6-Ben and 40 mM DBAA in 100% Methanol). […] Sample plates were vortexed immediately on a plate shaker at 800 rpm for 10 min and then centrifuged at 4,000 rpm for 10 min. An aliquot of supernatant (200 μL) is transferred from each well before submitting to LC-MS/MS analysis. The percentage of test compound remaining at the individual time points relative to the 0 hour sample is calculated using following equation: Percent Remaining=100×(PAR at appointed incubation time/PAR at T0 time) where PAR is the peak area ratio of analyte versus internal standard (IS).

Plasma stability, mouse = assay type: in vitro ADME; details: pH 7.4
Procedure: as §1

Plasma stability, rat = assay type: in vitro ADME; details: pH 7.4
Procedure: as §1

Plasma stability, human = assay type: in vitro ADME; details: pH 7.4
Procedure: as §1

Plasma stability, cyno = assay type: in vitro ADME; details: cynomolgus monkey, pH 7.4
Procedure: as §1

hemopexin domain of MT1 [1] = biological target: T1, hemopexin domain of MT1 (Homo sapiens, UniProt P50281); assay: Fluorescence polarization binding to MT1-MMP hemopexin domain; details: read-out: apparent Kd
Procedure: Direct Binding Fluorescence Polarization or Anisotropy Assays are performed by titrating a constant concentration of fluorescent tracer (here, the fluoresceinated bicyclic peptide to be studied) with its binding partner (here, the MT1-MMP hemopexin domain). As the concentration of binding partner increases during the titration, the polarization signal changes in proportion to the fraction of bound and unbound material. This allows determination of […] (Kd) quantitatively. Assay data can be fit using standard ligand binding equations.
The titrant (binding partner) concentration is varied from 0.1 nM up to typically 5 μM. The range is chosen such that the maximum change in fluorescent polarization can be observed. Buffers employed are phosphate buffered saline in the presence of 0.01% Tween. Experiments were run in black 384 well low-bind/low volume plates (Corning 3820), and the fluorescent polarization signal was measured using a BMG Pherastar FS plate reader. […]
Here, a preformed complex of PEX with the fluorescent PEX-binding tracer is titrated with free, non-fluoresceinated bicyclic peptide. […] Dissociation of the complex can be measured quantitatively, and the Kd of the competitor (titrant) to the target protein determined. The advantage of the competition method is that the affinities of non-fluoresceinated bicyclic peptides can be determined accurately and rapidly. […]

[2] = Tumor localization after IV injection; assay type: in vivo; details: mouse, mice bearing MT1-positive tumor xenografts, in less than 60 minutes, read-out: tumor localization level
hemopexin domain of MT1 [3] = biological target: T1, hemopexin domain of MT1; details: MT1-MMP binder formed with TBMB scaffold, as described in WO 2016/067035; cited from earlier work

Molecule | half-life at 2 μM (Blood stability, mouse) [h] | half-life at 2 μM (Plasma stability, dog; dog, plasma) [h] | half-life at 2 μM (Plasma stability, mouse; mouse, plasma) [h] | half-life at 2 μM (Plasma stability, rat; rat, plasma) [h] | half-life at 2 μM (Plasma stability, human; human, plasma) [h] | half-life at 2 μM (Plasma stability, cyno; plasma) [h] | other results
CCOCc1nc2c(NC(=O)OCCSCC(=O)NCCC(=O)N(C)CC(=O)N(C)CC(=O)N(C)CC(=O)N(C)CC(=O)N(C)CC(=O)N(C)CC(=O)N(C)CC(=O)N(C)CC(=O)N(C)CC(=O)N(C)CC(=O)N[C@@H](C)C(=O)N[C@H]3CSCc4cc5cc(c4)CSC[C@H](NC(=O)[C@@H](C)NC(=O)[C@H](Cc4cccc6ccccc46)NC(=O)[C@H](CCC(=O)O)NC(=O)[C@H](CC(N)=O)NC(=O)[C@@H](C)NC3=O)C(=O)N[C@@H](CCC(=O)O)C(=O)N[C@@H](CC(=O)O)C(=O)N[C@@H](Cc3ccccc3)C(=O)N[C@@H](Cc3ccc(O)cc3)C(=O)N[C@@H](CC(=O)O)C(=O)N[C@@H](C(C)(C)C)C(=O)N[C@H](C(N)=O)CSC5)nc3ccccc3c2n1CC(C)(C)O [I-7] ({X2-βAla}-[Sar][Sar][Sar][Sar][Sar][Sar][Sar][Sar][Sar][Sar]AC[dA]NE[1Nal][dA]CEDFYD[Tle]C-NH2; linker 12-18-25 via TBMB) | < 2 | > 24 | 6 to 24 | 6 to 24 | > 24 | > 24 | 
CCCOc1nc(NC(=O)OCc2ccc(NC(=O)[C@H](CCCNC(N)=O)NC(=O)[C@@H](NC(=O)Cn3cc(CCC(=O)NCCC(=O)N(C)CC(=O)N(C)CC(=O)N(C)CC(=O)N(C)CC(=O)N(C)CC(=O)N(C)CC(=O)N(C)CC(=O)N(C)CC(=O)N(C)CC(=O)N(C)CC(=O)N[C@@H](C)C(=O)N[C@H]4CSCc5cc6cc(c5)CSC[C@H](NC(=O)[C@@H](C)NC(=O)[C@H](Cc5cccc7ccccc57)NC(=O)[C@H](CCC(=O)O)NC(=O)[C@H](CC(N)=O)NC(=O)[C@@H](C)NC4=O)C(=O)N[C@@H](CCC(=O)O)C(=O)N[C@@H](CC(=O)O)C(=O)N[C@@H](Cc4ccccc4)C(=O)N[C@@H](Cc4ccc(O)cc4)C(=O)N[C@@H](CC(=O)O)C(=O)N[C@@H](C(C)(C)C)C(=O)N[C@H](C(N)=O)CSC6)nn3)C(C)C)cc2)c2[nH]c(=O)n(Cc3ccc(OCCN(C)C)nc3)c2n1 [I-18] ({X11-βAla}-[Sar][Sar][Sar][Sar][Sar][Sar][Sar][Sar][Sar][Sar]AC[dA]NE[1Nal][dA]CEDFYD[Tle]C-NH2; linker 12-18-25 via TBMB) |  |  |  |  |  |  | half-life at 2 μM (Plasma stability, dog; dog plasma, 2 μM, 37° C., read-out: T1/2 (dog)): < 2 h; half-life at 2 μM (Plasma stability, mouse; mouse plasma, 2 μM, 37° C., read-out: T1/2 (mouse)): < 2 h; half-life at 2 μM (Plasma stability, rat; rat plasma, 2 μM, 37° C., read-out: T1/2 (rat)): < 2 h; half-life at 2 μM (Plasma stability, human; human plasma, 2 μM, 37° C., read-out: T1/2 (human)): < 2 h; half-life at 2 μM (Plasma stability, cyno; cyno plasma, 2 μM, 37° C., read-out: T1/2 (cyno)): < 2 h
CCOCc1nc2c(NC(=O)OCc3ccc(NC(=O)[C@H](CCCNC(N)=O)NC(=O)[C@@H](NC(=O)Cn4cc(CCC(=O)NCCC(=O)N(C)CC(=O)N(C)CC(=O)N(C)CC(=O)N(C)CC(=O)N(C)CC(=O)N(C)CC(=O)N(C)CC(=O)N(C)CC(=O)N(C)CC(=O)N(C)CC(=O)N[C@@H](C)C(=O)N[C@H]5CSCc6cc7cc(c6)CSC[C@H](NC(=O)[C@@H](C)NC(=O)[C@H](Cc6cccc8ccccc68)NC(=O)[C@H](CCC(=O)O)NC(=O)[C@H](CC(N)=O)NC(=O)[C@@H](C)NC5=O)C(=O)N[C@@H](CCC(=O)O)C(=O)N[C@@H](CC(=O)O)C(=O)N[C@@H](Cc5ccccc5)C(=O)N[C@@H](Cc5ccc(O)cc5)C(=O)N[C@@H](CC(=O)O)C(=O)N[C@@H](C(C)(C)C)C(=O)N[C@H](C(N)=O)CSC7)nn4)C(C)C)cc3)nc3ccccc3c2n1CC(C)(C)O [I-22] ({X3-βAla}-[Sar][Sar][Sar][Sar][Sar][Sar][Sar][Sar][Sar][Sar]AC[dA]NE[1Nal][dA]CEDFYD[Tle]C-NH2; linker 12-18-25 via TBMB) | < 2 | > 24 | 2 to 6 | 2 to 6 | > 24 | > 24 | 
C[C@H](NC(=O)CN(C)C(=O)CN(C)C(=O)CN(C)C(=O)CN(C)C(=O)CN(C)C(=O)CN(C)C(=O)CN(C)C(=O)CN(C)C(=O)CN(C)C(=O)CN(C)C(=O)CCN)C(=O)N[C@H]1CSCc2cc3cc(c2)CSC[C@H](NC(=O)[C@@H](C)NC(=O)[C@H](Cc2cccc4ccccc24)NC(=O)[C@H](CCC(=O)O)NC(=O)[C@H](CC(N)=O)NC(=O)[C@@H](C)NC1=O)C(=O)N[C@@H](CCC(=O)O)C(=O)N[C@@H](CC(=O)O)C(=O)N[C@@H](Cc1ccccc1)C(=O)N[C@@H](Cc1ccc(O)cc1)C(=O)N[C@@H](CC(=O)O)C(=O)N[C@@H](C(C)(C)C)C(=O)N[C@H](C(N)=O)CSC3 [N241] (H-[βAla][Sar][Sar][Sar][Sar][Sar][Sar][Sar][Sar][Sar][Sar]AC[dA]NE[1Nal][dA]CEDFYD[Tle]C-NH2; linker 13-19-26 via TBMB) |  |  |  |  |  |  | Kd (hemopexin domain of MT1 [1]): ~2 nM
C[C@H](NC(=O)CN(C)C(=O)CN(C)C(=O)CN(C)C(=O)CN(C)C(=O)CN(C)C(=O)CN(C)C(=O)CN(C)C(=O)CN(C)C(=O)CN(C)C(=O)CN(C)C(=O)CCN)C(=O)N[C@H]1CSCc2cc3cc(c2)CSC[C@H](NC(=O)[C@@H](C)NC(=O)[C@H](Cc2cccc4ccccc24)NC(=O)[C@H](CCC(=O)O)NC(=O)[C@H](CC(N)=O)NC(=O)[C@@H](C)NC1=O)C(=O)N[C@@H](CCC(=O)O)C(=O)N[C@@H](CC(=O)O)C(=O)N[C@@H](Cc1ccccc1)C(=O)N[C@@H](Cc1ccc(O)cc1)C(=O)N[C@@H](CC(=O)O)C(=O)N[C@@H](C(C)(C)C)C(=O)N[C@H](C(N)=O)CSC3 [^177Lu-loaded N241, metal not drawn] (H-[βAla][Sar][Sar][Sar][Sar][Sar][Sar][Sar][Sar][Sar][Sar]AC[dA]NE[1Nal][dA]CEDFYD[Tle]C-NH2; linker 13-19-26 via TBMB; N-terminus and C-terminus assumed) |  |  |  |  |  |  | tissue uptake [2]: 15 to 20 %ID/g
βAla-Sar10-A-C(D-Ala)NE(1Nal)(D-Ala)CEDFYD(tBuGLy)C [17-69-07-N241] |  |  |  |  |  |  | Kd (hemopexin domain of MT1 [3]): 1.2 nM
